According to article PMC3735781 (Journal of the American Chemical Society, 2013):

Experiments:
Assay in all cases: HPLC steady-state kinetics, amide hydrolysis at lactyl moiety
[1] = system: CC(=O)N[C@H]1[C@@H]2OC[C@@H](O2)[C@@H](O)[C@@H]1O[C@H](C)C(=O)N[C@@H](C)C(=O)N[C@H](CCC(=O)N[C@@H](CCC[C@@H](N)C(=O)O)C(=O)N[C@H](C)C(=O)O)C(=O)O; assay type: biochemical, Pseudomonas aeruginosa; settings: 25 °C (Figure 2 reaction)
AmpDh3 = biological target: T1, AmpDh3 (Pseudomonas aeruginosa, UniProt Q9I5D1); assay type: biochemical; settings: 100 μM ZnCl2
T1 sequence (Q9I5D1 1-255): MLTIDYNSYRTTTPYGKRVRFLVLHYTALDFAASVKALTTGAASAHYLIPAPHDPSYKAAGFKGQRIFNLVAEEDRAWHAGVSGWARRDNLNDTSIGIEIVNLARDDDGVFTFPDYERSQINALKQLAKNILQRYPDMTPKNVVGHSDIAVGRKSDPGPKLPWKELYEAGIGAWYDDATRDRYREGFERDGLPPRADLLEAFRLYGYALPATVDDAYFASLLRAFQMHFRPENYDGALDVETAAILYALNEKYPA

AmpDh2 = biological target: T2, AmpDh2 (Pseudomonas aeruginosa, UniProt Q9HT86); assay type: biochemical; settings: 100 μM ZnCl2
T2 sequence (Q9HT86 18-259): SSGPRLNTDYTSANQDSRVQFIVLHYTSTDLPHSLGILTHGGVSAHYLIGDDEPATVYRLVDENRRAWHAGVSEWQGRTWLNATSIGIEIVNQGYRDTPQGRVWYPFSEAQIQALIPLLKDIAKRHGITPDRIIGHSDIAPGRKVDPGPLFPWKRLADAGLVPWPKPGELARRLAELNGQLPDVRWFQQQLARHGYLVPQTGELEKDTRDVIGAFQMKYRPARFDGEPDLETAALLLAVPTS

[2] = substrate: CC(=O)N[C@H]1[C@@H]2OC[C@@H](O2)[C@@H](O)[C@@H]1O[C@H](C)C(=O)N[C@@H](C)C(=O)N[C@H](CCC(=O)N[C@@H](CCC[C@@H](N)C(=O)O)C(=O)N[C@H](C)C(=O)O)C(=O)O; assay type: biochemical, Pseudomonas aeruginosa; settings: 100 μM ZnCl2

AmpD (Pseudomonas aeruginosa PAO1)
Km [1]: 1.2 ± 0.3 mM | kcat [1]: 39.8 ± 3.1 s⁻¹ | kcat/Km [1]: 33200 ± 7500 M⁻¹ s⁻¹

muramyl tetrapeptide 8 [compound 8]
Km (AmpDh3): 1.4 ± 0.2 mM | Km (AmpDh2): 1.8 ± 0.3 mM

B1: AmpDh3 (Pseudomonas aeruginosa PAO1) (protein)
chain: MLTIDYNSYRTTTPYGKRVRFLVLHYTALDFAASVKALTTGAASAHYLIPAPHDPSYKAAGFKGQRIFNLVAEEDRAWHAGVSGWARRDNLNDTSIGIEIVNLARDDDGVFTFPDYERSQINALKQLAKNILQRYPDMTPKNVVGHSDIAVGRKSDPGPKLPWKELYEAGIGAWYDDATRDRYREGFERDGLPPRADLLEAFRLYGYALPATVDDAYFASLLRAFQMHFRPENYDGALDVETAAILYALNEKYPA
Km [2]: 4.5 ± 0.6 mM | kcat [2]: 70.6 ± 6.6 s⁻¹ | kcat/Km [2]: 15700 ± 1900 M⁻¹ s⁻¹
